The data set has as its system MS2 coat protein. Briefly: apparent KD of MS2 coat protein; designed switch direction (-1 OFF switch, 1 ON switch): -1; higher = weaker reporter binding. In a few lines:
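The reported apparent KD is a per-design median over clusters, from curve fits of normalised cluster fluorescence. Protein titrations used SNAP-549-labelled MS2 coat protein, doubled from 0.7 or 1.5 nM to 3 µM, in Tris-HCl pH 7.5 buffer with KCl, MgCl2, BSA, DTT, tRNA and Tween-20, with no input, 200 uM small-molecule ligand, or an oligonucleotide input. The RNA switches were transcribed on Illumina chips by stalled E. coli RNA polymerase.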

Setting [1] is: Eterna round: R95, input ligand: microRNA oligo, concentration not stated.
Setting [2] is: Eterna round: R95, input ligand: FMN 200 uM.
The mark [3] stands for this setting: Eterna round: R95, input ligand: none.
The mark [4] stands for this setting: input ligand: microRNA oligo, concentration not stated.

Consider “GCAUGAAAUGUGAGGAUAUACCUCUGGAUACAUAGGUAGAAGGCACAUGAGGAUCACCCAUGUCCUAAACAUGC [Fiskers BMX 4 - 27] (puzzle: Brourd's mod of Exclusion 4)”, for which the “apparent KD of MS2 coat protein” value under setting [1] was 32.2 nM.

On to “GCAUGGAAAGUGAGGAUAUACCACUGGAUACAGUGGUAGAAGGCACAUGAGGAUCACCCAUGUCUCUACCAUGC [Fiskers BMX 4 - 41] (puzzle: Brourd's mod of Exclusion 4)”, for which, under setting [1], the “apparent KD of MS2 coat protein” value amounted to 13.4 nM.

With “GCAUUGAGUGUGAGGAUAUGCUGGUCCUUGGAUCAGCAGAAGGCACAUGAGGAUCACCCAUGUGAAAACAAUGC [JL bmx4 3.12] (puzzle: Brourd's mod of Exclusion 4)”, the “apparent KD of MS2 coat protein” value was found to be 125 nM under setting [2], 19.2 nM under setting [1] and 20.3 nM under setting [3].

“GCCAGAGCAGGAUAUCUAAUAUCUCACAUGAGGAUCACCCAUGUCCAGCGAAAGCUGGAGGGAGAAGGGCUCUGGC [Fiskers Ex 5 - 10] (puzzle: Exclusion 5)”: the “apparent KD of MS2 coat protein” value reads like this: under setting [2], 34.3 nM; under setting [1], 49.8 nM; under setting [3], 61.8 nM.

As for “GCCAGAGCAGGAUAUUCAAUAAUCCACAUGAGGAUCACCCAUGUCCUGCGAAAGCAGGAGGGAGAAGGGCUCUGGC [Mat - Exclusion 5 - Eli mod - D89] (puzzle: Exclusion 5)”, the “apparent KD of MS2 coat protein” value worked out at 37.7 nM under setting [2], 75.7 nM under setting [1] and 81.9 nM under setting [3].

For the sequence “GCCGAAAAUGUGAGGAUAUACCUAUGGAUACAUAGGUAGAAGGCACAUGAGGAUCACCCAUGUCUAAUAACGGC [Eli bmx4 4.26] (Eterna round: R97, puzzle: Brourd's mod of Exclusion 4)”, the “apparent KD of MS2 coat protein” value is, setting by setting: (input ligand: FMN 200 uM) 521 nM; (input ligand: none) 212 nM.

Consider “GCCGAUUAAGUGAGGAUAUACCUAUGGAUACAUAGGUAGAAGGCACAUGAGGAUCACCCAUGUUCCUCAUCGGC [Fiskers BMX 4 - 11] (Eterna round: R96, puzzle: Brourd's mod of Exclusion 4)”, for which the “apparent KD of MS2 coat protein” value is, setting by setting: (input ligand: FMN 200 uM) 155 nM; under setting [4], 16.5 nM; (input ligand: none) 21.3 nM.

Turning to “GCCGAUUAAGUGAGGAUAUACCUAUGGAUACAUAGGUAGAAGGCACAUGAGGAUCACCCAUGUUCCUCAUCGGC [Fiskers BMX 4 - 11] (puzzle: Brourd's mod of Exclusion 4)”, the “apparent KD of MS2 coat protein” value under setting [1] is 19.3 nM.

For “GCCGGAUUUGUGAGGAUAUGCCUAUGGAUACAUAGGCAGAAGGCACAUGAGGAUCACCCAUGUACCUCACCGGC [JL-BMX4-4.23 Eli mod] (Eterna round: R97, puzzle: Brourd's mod of Exclusion 4)”, the “apparent KD of MS2 coat protein” value came out at 141 nM (input ligand: FMN 200 uM) and 21.4 nM (input ligand: none).

With “GCCGGCUAUGUAGGAUAUGGGCCUGAUACGGGUCUAGAAGGACAUGAGGAUCACCCAUGUAUCGUGCGCUGGUGGCUUGCCGGU [-30, -30 kcal and 19% A] (Eterna round: R96, puzzle: Exclusion NG 1)”, the “apparent KD of MS2 coat protein” value came out at 389 nM (input ligand: FMN 200 uM), 119 nM under setting [4] and 141 nM (input ligand: none).

Turning to “GCCGGUUAAGUCAGGAUAUACCUAUGGAUACAUAGGUAGAAGGGACAUGAGGAUCACCCAUGUUCCUCAUCGGC [Fiskers BMX 4 - 13] (puzzle: Brourd's mod of Exclusion 4)”, under setting [1], the “apparent KD of MS2 coat protein” value stood at 13.3 nM.

Regarding “GCCGUAAAUGUGAGGAUAUACCUAUGGAAACAUAGGUAGAAGGCACAUGAGGAUCACCCAUGUUCUUAAUCGGC [Mat - Exclusion 4 - Eli Mod - D2] (Eterna round: R97, puzzle: Brourd's mod of Exclusion 4)”, the “apparent KD of MS2 coat protein” value was 689 nM (input ligand: FMN 200 uM) and 212 nM (input ligand: none).

In the case of “GCCGUAAAUGUGAGGAUAUACCUAUGGAUACAUAGGUAGAAGGCACAUGAGGAUCACCCAUGUUCCAAAUCGGC [Eli bmx4 4.07] (Eterna round: R97, puzzle: Brourd's mod of Exclusion 4)”, the “apparent KD of MS2 coat protein” value (input ligand: FMN 200 uM) was determined as 47.9 nM and the “apparent KD of MS2 coat protein” value (input ligand: none) was found to be 132 nM.

Turning to “GCCGUAAAUGUGAGGAUAUACCUAUGGAUACAUAGGUAGAAGGCACAUGAGGAUCACCCAUGUUCUUAAUCGGC [Eli BMX r4m2] (Eterna round: R97, puzzle: Brourd's mod of Exclusion 4)”, the “apparent KD of MS2 coat protein” value turned out to be 567 nM (input ligand: FMN 200 uM) and 185 nM (input ligand: none).

Consider “GCCUCACUUGAGGAUCACCCAAGUCAGGAUAUCUACAAGCCGACCAUACCGGCUUGCAAGAGAAGGGACUCUAA [Esonreti] (Eterna round: R97, puzzle: Exclusion 1)”, for which the “apparent KD of MS2 coat protein” value by setting is: (input ligand: FMN 200 uM) 246 nM; (input ligand: none) 31.8 nM.

“GCCUCACUUGAGGAUCACCCAAGUCAGGAUAUUCACUGAGCUGCAUAACAACUCGGCCGAAGAAGGGAUUCGGG [Edlacebe] (Eterna round: R97, puzzle: Exclusion 1)”: the “apparent KD of MS2 coat protein” value is, setting by setting: (input ligand: FMN 200 uM) 41.3 nM; (input ligand: none) 84.9 nM.

For “GCGACACGAGGAUAUCGGGUCUCUAACAUGAGGAUCACCCAUGUGGCGGCAGGCGUAAGACGAGAAGGCGUAUUCA [Eternabot (L2) Solution 65] (Eterna round: R97, puzzle: Exclusion 5)”, the “apparent KD of MS2 coat protein” value (input ligand: FMN 200 uM) was found to be 26.6 nM and the “apparent KD of MS2 coat protein” value (input ligand: none) was 34.3 nM.

With “GCGAGCAGACGGAGAUCCAACAUGAGGAUCACCCAUGUCUCGCAAGCUUUUUGCUUGUCUUAUCCUCCUCUGUUUAG [Design #8] (Eterna round: R97, puzzle: Sensor, turn-off variant 1)”, the “apparent KD of MS2 coat protein” value is, setting by setting: (input ligand: FMN 200 uM) 81.3 nM; (input ligand: none) 80.4 nM.

As for “GCGCACUAAGUGAGGAUAUCGAUUUUUUUUAGGAUCGAGAAGGCACAUGAGGAUCACCCAUGUUUGACGUGCGC [JR_BMOE4_Sub098] (puzzle: Brourd's mod of Exclusion 4)”, the “apparent KD of MS2 coat protein” value under setting [1] was determined as 15 nM.

For the sequence “GCGCAGGUAGGAUAUCGAGCUAAGAACAUGAGGAUCACCCAUGUGUUCGGUAGCCAACUUCGAGAAGGACCAAAUA [Ceati] (puzzle: Exclusion 5)”, the “apparent KD of MS2 coat protein” value under setting [2] came out at 23.9 nM, the “apparent KD of MS2 coat protein” value under setting [1] came to 11.4 nM and the “apparent KD of MS2 coat protein” value under setting [3] was 14.9 nM.

As to “GCGCCAUCGUGAGAUGGCGUAAUUACAUGAGGAUCACCCAUGUAGGAUAUCGAUUGCUUUGCAGUCGAGAAGGGCAUGUAUAAU [JL ENG3 3.94] (Eterna round: R96, puzzle: Exclusion NG 3)”, the “apparent KD of MS2 coat protein” value reads like this: (input ligand: FMN 200 uM) 45 nM; under setting [4], 26.5 nM; (input ligand: none) 37.9 nM.

“GCGCCAUCGUGAGAUGGCGUUCCGACAUGAGGAUCACCCAUGUAGGAUAUCGAUUGCUUUGCAGUCGAGAAGGGCGUGAUAAGU [JL ENG3 3.73] (Eterna round: R96, puzzle: Exclusion NG 3)”: the “apparent KD of MS2 coat protein” value (input ligand: FMN 200 uM) was determined as 18.3 nM, the “apparent KD of MS2 coat protein” value under setting [4] turned out to be 17.8 nM and the “apparent KD of MS2 coat protein” value (input ligand: none) was 22.9 nM.

On to “GCGGACUAGAUCGUGAGAUCAGAGACAUGAGGAUCACCCAUGUAGGAUAUCGAUUCGAAACGAAUCGAGAAGGGCAUAGUCCGC [JL denovo 7] (Eterna round: R96, puzzle: Exclusion NG 3)”, for which the “apparent KD of MS2 coat protein” value is, setting by setting: (input ligand: FMN 200 uM) 17.1 nM; under setting [4], 14.8 nM; (input ligand: none) 15.9 nM.

The record behind these values is the supplement of paper PMC9170038.
